Earlier results as cited in publication PMC11231438.

Biological target: plasminogen (Homo sapiens) (UniProt P00747)
Sequence of UniProt P00747 (P00747 20-810): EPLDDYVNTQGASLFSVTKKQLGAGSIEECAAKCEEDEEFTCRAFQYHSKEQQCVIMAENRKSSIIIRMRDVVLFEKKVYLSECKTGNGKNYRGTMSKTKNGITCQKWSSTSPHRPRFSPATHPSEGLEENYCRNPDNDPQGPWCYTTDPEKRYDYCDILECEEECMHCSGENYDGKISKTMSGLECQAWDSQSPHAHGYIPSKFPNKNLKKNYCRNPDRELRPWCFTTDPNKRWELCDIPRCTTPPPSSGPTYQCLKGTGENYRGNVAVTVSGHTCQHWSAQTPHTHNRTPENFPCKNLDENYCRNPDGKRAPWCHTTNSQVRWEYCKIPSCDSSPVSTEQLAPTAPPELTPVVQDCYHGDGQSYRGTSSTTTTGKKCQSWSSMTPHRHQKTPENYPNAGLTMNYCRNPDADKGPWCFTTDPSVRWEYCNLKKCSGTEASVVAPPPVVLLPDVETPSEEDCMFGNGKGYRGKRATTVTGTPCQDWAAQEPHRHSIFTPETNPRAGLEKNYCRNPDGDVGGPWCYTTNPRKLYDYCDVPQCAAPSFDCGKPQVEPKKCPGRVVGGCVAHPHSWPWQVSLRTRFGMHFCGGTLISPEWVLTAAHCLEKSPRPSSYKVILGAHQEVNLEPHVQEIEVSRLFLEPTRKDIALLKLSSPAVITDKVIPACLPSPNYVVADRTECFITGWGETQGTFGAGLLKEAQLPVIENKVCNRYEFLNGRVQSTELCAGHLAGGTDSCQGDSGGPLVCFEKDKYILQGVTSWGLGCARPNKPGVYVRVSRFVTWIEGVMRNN

For enolase (from UniProt Q96X30), the Kd is given as 0.53 µM.
